Measurements: paper PMC12446779, “Structural basis of transglucosylation in dextran dextrinase, a homolog of anomer-inverting GH15 glucoside hydrolases” (The Journal of Biological Chemistry, 2025)

Molecular target: Gluconobacter oxydans dextran dextrinase Δ382C (Met1–Ser902) (Gluconobacter oxydans)
Test: SEC; gel filtration of purified Δ382C (Fig. S8); conditions not told in the text shown

With “Gluconobacter oxydans dextran dextrinase Δ382C (Met1–Ser902) (enzyme)” the stoichiometry N was 2.
